Assay: soluble on expression in E. coli; label from the status in PepcDB or PDB records

Soluble on expression in E. coli, not soluble:
MGSDKIHHHHHHMDELYIMNPWWRDPEIINTDRHISMFENSTFKYFPENLFKKIPLNKPGIYTIRGPRQVGKTTFLKLYIRKLLRDGVKPSNIFFFTCDAVKDRFELIETMKAYFQIFERKAGETRYLFIDEITAVEDWQKSIKYLVDIGLLENSLLILTGSSAFDLKRSSERLPGRKGYGEDLVYLPLTFGEFLESLGISVERMSVDDIFLKSEEELRILYLKNSFLKEYFVKYLNTGGFPKVIDVFLKEGKIDEITKGVFRDFILGDAEKYLGSRIKVIEIFKKLPDIVGQRFSWNSLVDIFSGAIESVDTIQKYFEYLGYSFILMNVFFVDISRKTVRLKKQKKTYPIDRVVVDIIEEISGKQIKLPQIVEMLTLRHLMGNGKTLPNGMNLYDGPFFWYSDRGNEVDFVFEHGDSLIPVEINFQNNIHRSDYAGMKKVFKKGIVITQDAIFRDENIVAVPAWLFFAVFEGNE
MGSDKIHHHHHHMDFHTGKWLCKQYNLNSFTKVSLLHGGENQTYMFESDKNKFVVRQYREGRYTAEQIEAEIHWLIAIQKQMLVPEVVVNKDGDWVTPVMKDEGSIQYFVVFRFINGNEIIEPKDKDYEKLGSFMRMFHEKTNGVLKSVPQTWRGYERPIYSEKKMIHEPLQCLLNTSFLSYEDKNKCLRIAERIQELTNSIQLREKQFVHGDMHFGNILVDKEDWYLLDFDECGFGYKEFDIGVPRLHLIASGQLEDAWGNFMMGYGENISESAIRLGAASRIFYMAGKIPLRLDIEPIKKNPDHFIRRYIQYAEEELCGETIV
MGSDKIHHHHHHMDFVAVAVHTEYRCNQGWETRAECHWFVSTIRAIMTATQSISLVGGEGDELLMQRYASGDIQAFDTLYRRHKGGLYRYFLRQIGDSQLAEDLYQETWGRVIKAAPAYEISAKFTTWLYRIAHNLLIDHVRAVKPLNEADTLDEEGMALTDSMTPVRSHEHDLKVQALKHCVGLLPQVQKEAFLLSSEMGFTALMISEIASVSLEATKSRIRYAYQSLKTCVAKRLGEDSDER
MGSDKIHHHHHHMDFVDVPAVTRDATILSLRDVSRKLVRELGFMRSTLANSDLAPSAVHAVLEIGMKPGITAKDLATILRLDKSNTSRQIARLEAAGFVERRVSSDDARSSELYLSAEGKSLRARIDRFATSQVSNALRHMAPADQQALLRSLALYANALAQDNAGNAPPATPEAVQIIEGYQPGCIGDIASLHGRFYAAHWGFGAFFEKRVATELAAFAGSLPVDGKALWLYVENGRSLASLAIDGDKTTGIAHLRWFIVDESLHGSGIGRELMARAMRFVETQGFRETHLWTFKGLEAARHLYESHGFRLSEEFEGSQWGTTVTEQRFNRV
MGSDKIHHHHHHMDIKNKIKSIFLPEKNDYLDDEEFEYDIENNEEDLKEDNKVHLNDLSRVKYDYRELKDIENQTEEMCLLAVKQDGTIIEFVKDKTYKVCMEAVKQTYKSLKYITNQNEDICIEAVKQNYRALYYINNKTENVLIEAIKNASTYDVMEVFKFVEEQTEDVCLAFIERASKNDVAEILKGIKEQTPAICLEAVKKDGKSLAYVKEQSNSICLEAVKENYSALSCVKEQTEEICIEAVKQNDFALYYVNEQTEKICMEAVKRSYMALQYVNKQTEEICLEAVRIDGRALQYVKEQTEEICLESVRQNGKVLQYVKKQTENICIEAVRGSFEELEIKEILSYVKIPTERIFVEAVKQNGKILKYVENQTELICLEAVRENYNALAYVKEQTEKICLEAVNQSYEALKYVKEQTEEVCLKAVKQDYRMLKYVNNQTEKICLEAVKQNYRALEFVDNQTEKVCLEAVKQNRKALQYVKQKQS
MGSDKIHHHHHHMDIRSLKMYLHLCDSLHFAKTAEQSHVSPSTLSRALQRLEDEVGSKLFDRDNRSVTITHAGVEFKRFAEQTLSEWTQLRSRIDPSQQFLRGNLNLYCSVTAAYSHLPALLDRFRREHPHVDINLNTGDPANAVNQIQKNRADIAIIALPEAFPSSLHFTPIDKVPISVIAPTIQCQVQQWVSQAKIDWAKLPYIVPDHGPGRKRIDLWFKQMGIKPNIYAQVSGQEAIVSMVALGCGVGISPEAVIHNSPVRDRIQTLASPIPIPPFELGCCCKEKRTNDPIIRAFLDII
MGSDKIHHHHHHMDIRVLRYFVVIAQEQNISRAATLLNVSQPALSRQIADLEDELGTKLFTRAHRHIQLTQEGHYLLERALQIIGLVDKTTYNLQKQDVVSGTLDIGAGESVGIMPVMEAAQQIMRQYPDVRVNLRSADAEPILADLDAGILEFGIIMGNRPLNNYNTLVLPAKNHWCAIMRADEPLAQQKEIRPIDLVGRPLITSRQAYKHGLFQKWSNTLYDQLNFVGTFNLAFNGSLLVKTGAAIALLYDQLVDVSPTSGLVARPLNPDMSEANTLIWSKNRNLPNLNRLFLDTLQKNLAQQGGSDA
MGSDKIHHHHHHMDKAFPSGLAVGIFDHLDEDGPDIARQYEDRLMLAEACDHLGFYAYHLAEHHCTPHGRGPSPNLFLSSVAQRTRRLRVGPLVMLLALYHPLRAFEEICMLDQLSGGRLELGIGRGSLPIELGYFGIGSDAAPNHYAEASEILINALKGGTLSYQGRHFELNSVPLTLRTHQRPHPPTWIATNRPESAVWAAANGVNIACVGPSSSVRRITDAFRREHTSEADDQTPFLGLLRMVVIGRSETDARSLAAPAYERWLKSFKFLYDLNGMPTPPNLPLTFDAAIEKELCVVGTAASAGHALLEQLEAAGANYLLCQPAFGNLSLDASLYTATAIQSAIMARVG
MGSDKIHHHHHHMDKKTYKLLRTLTHLSKDLYNLTLYTVKQHYELNGTFLPFVKAYHMVKDSEPYKLLPSQVAQQTMKIVERNFRSFFHVLKERKKGNYNRPVRPPKYLPKNGHFILIFPYQSFRVKEDRIILTLGKNFAEKYGVKHLEIPLPKNVKGHRIKEIRILPRYNALWFEVEYVYEVLPEERDLDRSKYLAIDLGLDNFATCVSTTGTAFIIEGRGLKSFNRWWNKEKAKLQSQYDKQGVKFGKRMVWLLKKRKNVVNDFMNKAVSYIVNYCLENGIGNVVIGELKGVKQNTDLGRRNNQNFHYIPYGLFKQKLKAKCERYGINYIEVDEAYTSKVDALTLEPIEKREKYLGKRGETWTVPVFRWCFNKC
MGSDKIHHHHHHMDLVEEILRLKEERNAIILAHNYQLPEVQDIADFIGDSLELARRATRVDADVIVFAGVDFMAETAKILNPDKVVLIPSREATCAMANMLKVEHILEAKRKYPNAPVVLYVNSTAEAKAYADVTVTSANAVEVVKKLDSDVVIFGPDKNLAHYVAKMTGKKIIPVPSKGHCYVHQKFTLDDVERAKKLHPNAKLMIHPECIPEVQEKADIIASTGGMIKRACEWDEWVVFTEREMVYRLRKLYPQKKFYPAREDAFCIGMKAITLKNIYESLKDMKYKVEVPEEIARKARKAIERMLEMSK
MGSDKIHHHHHHMDPRHRRGARLRHHQRDVARGGSVPARRQAHRRVARGLGEPVFVTHLVFFCGHAGTGKTTLAKRLIGPLMRATGEAFCLLDKDTLYGRYSSAAMGALTSDPNDRDSPLYLKHLRDPEYQGLLDTARENLALGIGALVVGPLSREVRDRRILDRAWLGIGPEIALTVVWVHTAEDVAHQRIVARGNPNDAYKLAHWDEYRQRRFVPTGHECDGIVMFDNTAPSDADIDALLYRIVPPAPQATMVPPLPA
MGSDKIHHHHHHMDQQTVLPEQDHDKSAIDELDFSCHSSGNFPGILAGLKLSLVVTSYQAHRLFFVRSNGIQIDVNFKNFVRPMGISVTPQQITLGTLNQVWRFRRSDDALALLDDPHADACYVASACHTTGLINIHDIAYGNKGLWVTNSAFSCLATLEPDYSFVPRWKPDFISALAPEDRCHLNGMALLDGEPAYVTTFNQSDTARSWRDGAKDQGTLINIKTGEQIFSNLTMPHSPRCYNGYVYFCESGHGLVRRYDPRTNEVVDVVKLAGFTRGMDFFGPLMFVGLSKTRFSSVAEPAPIAQQLEESQSGIWCINLTDHSVVGFVRFEGNIDQIYDVAVLSGVMYPELLLPDDELSMSVFNFPPLSYASEN
MGSDKIHHHHHHMDRRDFFKTVAITGAAMTIQRSEAMEILTQTINKANGDKPDLVAVMGGEPEAMFRRAISELGGMKQFIKPGQKVVVKPNIGWDKVPELAGNTNPKLITEIIKQCFATGAKEVTVFDHTCDDWQKCYKNSGIEAAAKEAGAKVMPAHLESYYKPVDLPKGQKMKKAKIHEAILNCDVWINVPILKNHGGANLTISMKNHMGIVWDRGFFHQNDLQQCIADICTLEKKAVLNVVDAYRIMKTNGPRGRSASDVVLAKGLFISPDIVAVDTAAAKFFNQIREMPLDTVGHLAKGEALKVGTMDIDKLNVKRIKM
MGSDKIHHHHHHMDRYPPFGFVRAVPIASSGNMTGESISNIATALVVGGGIGGMATAISLAERGVTVDLVDLDPEWRVYGAGITITGPTLRAYRRLGMLDEIKHKGAITSKTRLFRYDGTHMLDLDEPVIEEGLPATGGIMRPVLHHIMQKRVRELEIPVRLGLTVDALENVQGGVDVRFSDRTARRYDLVVGADSVFSRVRDLAFAHMGPAQPTGQGCWRISIRKPPGLDMGEFFLGHANPCGITACGPDTVYMWMLTPHVERDSHMDDEELFVTLKALLADFGGNAGWIRDNMTREDWINYRPLAAALQPRDWFNGRIVLVGDAVHATTPHLASGAGMAVESGIVLAEELARAGDVESALRAYQERRFDRCRDVIETSVAVGRLQLEHGDPQVHAKMLEGALGRLNQPF
MGSDKIHHHHHHMDSELRKRFNPDGSLLRRQQLRMLELLEVIDVICRKHQIPYWLSSGTLIGAARHKGFIPWDDDLDIEMLRSDYLRLLKVLPQELPDNLALQTNETDPNYIFIYGKLRDKDSHLEETNSYDRIFHYTGIYIDIFPLEKIPYCLAWIGGHMQGQIYNQLNNKNIKESTLYKRIRRIYHFNTRIGFPILRFIAKLFPGKELRHSFGTAYFKPRYTDDIFPLTEMEFEGKMFPVPRQTDAVLRKIYGDYMQLPDLENIHPHYNKLEFYK
MGSDKIHHHHHHMDSKSNSELARLEQAARAAWLYYVAKNTQDEIAQKLEVSRQSAQRLVALAVSEGLIKVRLDHPIVKCMELGQQLTQAFNLLECEIVPSDPADDSSVHGLAQCGAGVLERYLKSEQPKTLAFGTGRALKACIDELPSMQCPQHKIVSLLGNMMLDGSASAFDIVVSMANRVQAKHYPMPLPVIATSVAEKQLLHDLAPVKSIFELVIQADATFVGIGHMGAESPLLLDGFINQSQLTELINDNATGEIISWVYNQQGQLLDHSINELVMSSPLRIDSNKPVYGIAAGQHKVDAIFSALQGRLINSLITNEYTAERILAKLK
MGSDKIHHHHHHMDSLTELFCLIDDFCCQFEPALERRLLETGVKKRKRCSGLSLSELMTLTVLFHQLRFRQFKSFYLVYVCRHLQAEFPKLPSYQRCVELLPRCVAPLAALFEMLKGQCDGISIADATAIAVCDNRRIARHRVFADSARRGKTSMGWFYGFKLHAIINSRGELIRLRLTAGNVDDRKPMPDLCQGLFGQLFADKGYLAQWLTEALDQQNLQLITPLRKNMRPVPRTRFEKVILRRRSLIETVFDELKNLCQIEHTRHRSLFNFIVNLMAGIVAYCLSDNKPTLNLTRVNSLAKA
MGSDKIHHHHHHMDTQQLKVVSQQVQEQANFPPEFNRLLNELPDEVKHRIFPHLELVQLELGDVVCEAGSKVRYVYFPLNSIISLLYVMENGASAEIAVVGNDGMVGVALFMGGESTTSRAIVQSAGVAYRLFGQRLKDEFNRHGALLHLLLRYSQILLTQMAQTAVCNRHHSIEQQLCRWLLLSIDRLPDDRVMMTQELIANMLGVRREGVTDAAGKLQRIGIINYSRGNIEVLDRKLLEQTCCECYSVVKQESERLMPLKKFTKK

Source: the DeepSol protein solubility set
